Assay [1] addresses T1, recombinant soluble human CD371 extracellular domain (His 65-Ala 265) with polyhistidine tag (human, UniProt Q5QGZ9 65-265, biotinylated in the scFv BLI measurements (site not stated)).
T1 construct: range 65-265; also called soluble CD371; recombinant CD371; not shown: polyhistidine tag
T1 sequence (looked up): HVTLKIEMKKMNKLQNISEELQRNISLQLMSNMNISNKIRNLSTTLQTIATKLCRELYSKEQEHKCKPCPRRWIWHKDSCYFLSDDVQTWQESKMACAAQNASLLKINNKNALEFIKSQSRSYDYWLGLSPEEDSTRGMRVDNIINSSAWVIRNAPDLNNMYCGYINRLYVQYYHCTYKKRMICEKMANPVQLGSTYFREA
The assay can be described thus: phage ELISA on human CD371, anti-M13 detection. Here is the method:
(§1) A proprietary naïve, semi-synthetic scFv phage display library was screened for antibodies that bind to the CD371 protein by using standard solid phase phage display panning techniques. Briefly, recombinant CD371 was immobilized on a polystyrene surface followed by blocking with about 5% milk and incubation with the phage library. Subsequent washing, elution and phage amplification steps were performed to complete each round of biopanning. Three rounds of panning were completed using amplified CD371 binder-enriched phage pools from the previous round of panning as input for subsequent rounds.

The target in assay [2] is T2, recombinant extracellular domain of murine CD371 (Thr 67-Arg 267) with polyhistidine tag (murine, UniProt Q504P2 67-267).
T2 construct: range 67-267; also called mouse homolog of CD371; not shown: polyhistidine tag
T2 sequence (looked up): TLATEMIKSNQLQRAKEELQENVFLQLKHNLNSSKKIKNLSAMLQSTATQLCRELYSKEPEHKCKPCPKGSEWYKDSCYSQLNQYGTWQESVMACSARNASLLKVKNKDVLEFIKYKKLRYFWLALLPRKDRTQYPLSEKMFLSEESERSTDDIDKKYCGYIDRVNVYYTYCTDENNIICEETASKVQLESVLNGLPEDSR
The assay can be described thus: phage ELISA, anti-M13 detection. Here is the method:
as §1
A general note: An ELISA detects its analyte on a solid surface through an enzyme-linked reagent.

For assay [3], the target named is T1, recombinant soluble human CD371 …. The assay can be described thus: BLI, Fc fusion captured with anti-Fc antibody, soluble CD371 as analyte. The text has this: (§2) Affinity measurements of the B10 variants determined by biolayer interferometry by capturing the IgG and Fc fusions with anti-Fc antibody, and using soluble CD371 as analyte. For scFv affinity measurements, biotinylated CD371 was captured with streptavidin, and soluble scFv was used as analyte. […] Consistent with the flow cytometry results, the full IgG and the scFv-Fc fusions bound more strongly than the scFvs (Table 8), presumably due to their bivalent interaction, resulting in an avidity effect. Weak binding of the 1B10 scFv in the VH-VL Orientation was observed but a dissociation constant could not be calculated by any curve fit method.
On the technique in general: Biolayer interferometry detects binding as a change in optical thickness at a sensor tip.

The target is the same in assay [4]. In words: BLI, biotinylated CD371 captured with streptavidin, soluble scFv as analyte.
Description: as §2

For assay [5] the target is unchanged. In words: BLI, IgG captured with anti-Fc antibody, soluble CD371 as analyte.
Description: as §2

Assay [6] addresses T3, human CD371 on the cell surface (OCI AML cells; HEK293 cells expressing human CD371) (human, UniProt Q5QGZ9 1-265).
T3 construct: whole, on cells; The transfected construct is not specified further; also called CD371 cells; CD371+ AML cell line OCI
T3 sequence (looked up): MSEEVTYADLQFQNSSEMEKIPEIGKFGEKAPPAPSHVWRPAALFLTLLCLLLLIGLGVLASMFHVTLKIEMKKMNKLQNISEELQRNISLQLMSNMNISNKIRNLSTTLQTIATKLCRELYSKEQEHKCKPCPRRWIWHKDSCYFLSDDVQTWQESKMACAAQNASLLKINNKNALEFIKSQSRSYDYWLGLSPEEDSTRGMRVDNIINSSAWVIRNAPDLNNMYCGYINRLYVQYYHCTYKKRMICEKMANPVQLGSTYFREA
In words: flow cytometry of monoclonal phage prep on HEK293H cells transfected with human CD371 against wild type HEK293H; detection by anti-M13 mAb and PE anti-mouse. Here is the method:
Once selected, positive scFv clones are tested for their binding to CD371 (e.g., human CD371) on cell surfaces by flow cytometry. Briefly, phage clones are incubated with HEK293H cells over-expressing CD371. The cells are washed and then incubated with a M13 coat protein mAb. Cells are washed again and labeled with a PE-labeled anti-mouse Fab₂ prior to flow cytometry.

Here are results for 10 molecules from patent US20220195064A1 (Memorial Sloan Kettering, published 2022).

B1: B031_P1_PH2A11 monoclonal phage prep (scFv displayed on phage) (scFv, V domains shown)
VH: EVQLLESGGGLVQPGGSLRLSCAASGFTFTSTQMSWVRQAPGKGLEWVSEISGYGGSTYYADSVKGRFTISRDNSKNTLYLQMNSLRAEDTAVYYCAKDTEVSGDAFDIWGQGTMVTVSS
VL: EIVLTQSPGTLSLSPGERATLSCRASQSVDSSNLAWYQQKPGQAPRLLIYGASSRATGIPDRFSGSGSGTDFTLTISRLEPEDFAVYYCQQYRSWPITFGQGTKVEIK
notes: Tested as an scFv on M13 phage
For the molecule B1, the binding result is listed as “binds” in assay [1] and “no binding” in assay [2].

B2: B10 scFv-Fc fusion, VL-VH orientation (Fc fusion)
chain: DIVMTQSPDSLAVSLGERATINCKSSQSVLDSYNNENNLAWYQQKPGQPPKLLIYWASTRESGVPDRFSGSGSGTDFTLTISSLQAEDVAVYYCQQYTSEPITFGQGTKVEIKGGGGSGGGGSGGGSGGGGSEVQLLESGGGLVQPGGSLRLSCAASGFTFSDYQMSWVRQAPGKGLEWVSGIQGGGGSTYYADSVKGRFTISRDNSKNTLYLQMNSLRAEDTAVYYCAREMWRGDYYSGMDVWGQGTTVTVSS
notes: also called VL-VH-Fc; not shown: Fc region
Usually Kd stands for the free concentration of one partner at which half of the binding sites on the other are occupied at equilibrium, for simple one-to-one binding. By koff is commonly meant a measure of how fast the partners let go of each other. In general, kon refers to the second-order rate constant of association. Consider B2, for which, in assay [3], the Kd turned out to be 7 nM, the koff was 0.00206 s⁻¹ and the association rate constant (kon) came out at 295000 M⁻¹ s⁻¹.

B3: B10 scFv in the VL-VH orientation (scFv)
scFv: B2 chain
notes: Soluble scFv; also called VL-VH scFv; 1B10 scFv VL-VH
Consider B3, for which, in assay [4], the Kd was found to be 16 nM, the koff came to 0.00952 s⁻¹ and the kon was found to be 599000 M⁻¹ s⁻¹.

B4: B031_P1_PH2E8 monoclonal phage prep (scFv displayed on phage) (scFv, V domains shown)
VH: EVQLLESGGGLVQPGGSLRLSCAASGFTFSSYAMSWVRQAPGKGLEWVSEIDGEGGYTNYADSVKGRFTISRDNSKNTLYLQMNSLRAEDTAVYYCAREGVDYDILTGYYPYGMDVWGQGTTVTVSS
VL: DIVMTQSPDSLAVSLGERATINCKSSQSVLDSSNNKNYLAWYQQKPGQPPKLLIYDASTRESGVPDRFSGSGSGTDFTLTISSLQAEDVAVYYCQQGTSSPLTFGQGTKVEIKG
notes: as for B1
For B4, in assay [2], the binding result is listed as “no binding”.

B5: B031_P1_PH1C3 monoclonal phage prep (scFv displayed on phage) (scFv, V domains shown)
VH: EVQLLESGGGLVQPGGSLRLSCAASGFTFTSYAMSWVRQAPGKGLEWVSGIDGSGGGTNYADSVKGRFTISRDNSKNTLYLQMNSLRAEDTAVYYCARAYYDILTGYPVDGMDVWGQGTTVTVSS
VL: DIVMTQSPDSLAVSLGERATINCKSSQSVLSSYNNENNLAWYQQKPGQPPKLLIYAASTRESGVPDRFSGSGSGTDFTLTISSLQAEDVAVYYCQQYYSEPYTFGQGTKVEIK
notes: as for B1
For B5, in assay [2], the binding result is listed as “no binding”.

B6: B031_P1_PH2E4 monoclonal phage prep (scFv displayed on phage) (scFv, V domains shown)
VH: EVQLLESGGGLVQPGGSLRLSCAASGFTFTSYYMSWVRQAPGKGLEWVSGISGSGDSTSYADSVKGRFTISRDNSKNTLYLQMNSLRAEDTAVYYCAREAGGDYDSGAFDIWGQGTMVTVSS
VL: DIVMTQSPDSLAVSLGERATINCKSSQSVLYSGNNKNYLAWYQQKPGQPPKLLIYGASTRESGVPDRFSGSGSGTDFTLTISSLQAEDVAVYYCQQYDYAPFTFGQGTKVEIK
notes: as for B1
On to B6, for which the values for the binding result in assay [1] and in assay [2] were “binds” and “no binding”, respectively.

B7: B10 reformatted to human IgG1 (antibody, V domains shown)
VH: EVQLLESGGGLVQPGGSLRLSCAASGFTFSDYQMSWVRQAPGKGLEWVSGIQGGGGSTYYADSVKGRFTISRDNSKNTLYLQMNSLRAEDTAVYYCAREMWRGDYYSGMDVWGQGTTVTVSS
VL: not shown
notes: Human IgG1; also called 1B10 IgG1; B031_P1_PH1B10 IgG1
With B7, in assay [5], the Kd came to 9.5 nM, the koff was 0.00153 s⁻¹ and the kon stood at 160000 M⁻¹ s⁻¹.

B8: B031_P1_PH1B10 monoclonal phage prep (scFv displayed on phage) (scFv, V domains shown)
VH: B7 VH
VL: not shown
notes: Tested as an scFv on M13 phage (supernatant or phage prep)
With B8, the binding result in assay [2] was “no binding”.

B9: B031_P1_PH1D6 monoclonal phage prep (scFv displayed on phage) (scFv, V domains shown)
VH: EVQLLESGGGLVQPGGSLRLSCAASGFTFTDYAMSWVRQAPGKGLEWVSDIDGSGGSTDYADSVKGRFTISRDNSKNTLYLQMNSLRAEDTAVYYCALELGATTVYWGQGTLVTVSS
VL: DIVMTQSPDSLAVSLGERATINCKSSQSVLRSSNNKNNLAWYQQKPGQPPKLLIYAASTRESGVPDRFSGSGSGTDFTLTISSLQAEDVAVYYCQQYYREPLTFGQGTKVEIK
notes: as for B1
With B9, the binding result is recorded as “binds” in assay [1], “binds” in assay [6] and “no binding” in assay [2].

B10: B10 scFv-Fc fusion, VH-VL orientation (Fc fusion)
chain: EVQLLESGGGLVQPGGSLRLSCAASGFTFSDYQMSWVRQAPGKGLEWVSGIQGGGGSTYYADSVKGRFTISRDNSKNTLYLQMNSLRAEDTAVYYCAREMWRGDYYSGMDVWGQGTTVTVSSGGGGSGGGGSGGGSGGGGSDIVMTQSPDSLAVSLGERATINCKSSQSVLDSYNNENNLAWYQQKPGQPPKLLIYWASTRESGVPDRFSGSGSGTDFTLTISSLQAEDVAVYYCQQYTSEPITFGQGTKVEIK
notes: also called VH-VL-Fc; not shown: Fc region
Regarding B10, in assay [3], the Kd stood at 4.2 nM, the koff was found to be 0.000968 s⁻¹ and the kon stood at 232000 M⁻¹ s⁻¹.
